From patent publication US20140107188, “USE OF HGMA-TARGETED PHOSPHOROTHIOATE DNA APTAMERS TO SUPPRESS CARCINOGENIC ACTIVITY AND INCREASE SENSITIVITY TO CHEMOTHERAPY AGENTS IN HUMAN CANCER CELLS” (Miami University, published 2014)

Assays:
HMGA1b (full length) [1] = molecular target: T1, HMGA1b (full length) (UniProt P17096-2 P17096-2:1-96); experiment: EMSA; nearly completely shifted at DNA:HMGA1 1:1.5; 25 mM Tris-HCl pH 6.5, 50 mM NaCl, 4 C; details: tags: expressed from pET-30b in E. coli BL21(DE3); TCA precipitation and Sephadex G-25; label: 5'-6-FAM
Method: (§1) The HMGA protein samples were prepared in 25 mM Tris-HCl (pH 6.5), 50 mM NaCl, and the concentrations determined based on UV […] absorbance (ε=38,200 mol-1 cm-1). […] Nature structural biology 4 (1997) 657-665, the disclosure of which is incorporated herein by reference in its entirety and incubated at 4° C. for 15 minutes prior to gel analysis. The protein-DNA complexes were resolved on a 7.5% polyacrylmide gel and run with TAE buffer at 20 mA for 2-3 hours at 4° C. The DNA was detected at 495 nm using the VersaDoc™ Imaging System Model 3000 from BIO-RAD Laboratories, Inc. of Hercules, Calif. (USA). The gels were further stained with coomassie blue and visualized by an AlphaImager (Alpha Innotech, San Leandro, Calif.).

HMGA1b (full length) [2] = molecular target: T1, HMGA1b (full length); experiment: competition; about half of ATf10 displaced at 1:1 ATf10:ATs10; similar affinity to unmodified DNA; details: tags: expressed from pET-30b in E. coli BL21(DE3); TCA precipitation and Sephadex G-25
Method: as §1

HMGA1b (full length) [3] = molecular target: T1, HMGA1b (full length); experiment: competition; equal amount did not interfere with HMGA1-ATf10 complex; 1:1 ATf10:HMGA1; details: tags: expressed from pET-30b in E. coli BL21(DE3); TCA precipitation and Sephadex G-25
Method: as §1

T1 sequence (P17096 other isoform, or with tags, fused parts or gaps): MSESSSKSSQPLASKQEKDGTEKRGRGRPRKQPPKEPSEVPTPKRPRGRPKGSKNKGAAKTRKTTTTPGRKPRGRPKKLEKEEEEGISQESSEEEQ

| Binder | binding result (HMGA1b (full length) [3]) | further results |
| --- | --- | --- |
| ATf10 (dsDNA) DNA 1: CGCGGGGCCGCCGCGAAAAAAAAAAACCC DNA 2: GGGTTTTTTTTTTTCGCGGCGGCCCCGCG |  | binding result (HMGA1b (full length) [1]): binds |
| ATs10 (dsDNA, PS at the T10 tract linkages of the printed strand (GGGT*T*T*T*T*T*T*T*T*T*CGCG..); complementary strand unmodified) DNA 1: GGGTTTTTTTTTTCGCGGCGGCCCCGCG DNA 2: CGCGGGGCCGCCGCGAAAAAAAAAACCC |  | binding signal (HMGA1b (full length) [2]): ~1 fold affinity vs ATf10 |
| CG10 (dsDNA) DNA 1: GGGCCCCCCCCCCCGCGGCGGCCCCGCG DNA 2: CGCGGGGCCGCCGCGGGGGGGGGGGCCC | no binding |  |
| Mix10 (dsDNA) DNA 1: GGGCGTGACTGAGCGCGGCGGCCCCGCG DNA 2: CGCGGGGCCGCCGCGCTCAGTCACGCCC | no binding |  |
